# Assay results as given in paper PMC10318635, “ER Ca^2+ overload activates the IRE1α signaling and promotes cell survival” (Cell & Bioscience, 2023).
# T1: Flag-tagged IRE1α-LD (UniProt O75460 19-440)
# T1 construct: signal peptide in the construct; inositol-requiring enzyme 1 (IRE1α/ERN1), luminal domain (LD), residues 1-440; The signal peptide is probably removed in HEK-293T cells; also called IRE1α-LD-FLAG; LD-FLAG; source: HEK-293T, purified (M2 beads, eluted with Flag peptide, concentrated by ultrafiltration)
# T1 sequence (looked up): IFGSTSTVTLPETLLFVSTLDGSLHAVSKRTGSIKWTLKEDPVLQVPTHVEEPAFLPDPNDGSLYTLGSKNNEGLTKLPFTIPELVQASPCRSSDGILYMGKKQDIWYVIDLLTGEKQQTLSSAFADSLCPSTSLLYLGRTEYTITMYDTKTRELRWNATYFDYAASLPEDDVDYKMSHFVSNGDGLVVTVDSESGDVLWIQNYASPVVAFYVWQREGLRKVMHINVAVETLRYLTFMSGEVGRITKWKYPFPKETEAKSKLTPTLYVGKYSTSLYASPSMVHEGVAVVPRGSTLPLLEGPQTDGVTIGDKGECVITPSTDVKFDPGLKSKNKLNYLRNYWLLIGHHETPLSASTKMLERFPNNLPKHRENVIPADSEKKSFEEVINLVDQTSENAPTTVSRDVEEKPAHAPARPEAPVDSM
# B1: GST-tagged BiP-nucleotide binding domain (NBD) (domain or fragment)
# chain: not shown
# notes: also called GST-BiP-NBD; BiP-NBD; source: bacterially purified, immobilized on glutathione Sepharose 4B beads
# Biological target: T1, Flag-tagged IRE1α-LD
# Assay: pull-down; GST-BiP-NBD immobilized on glutathione Sepharose 4B beads, incubated with IRE1α-LD-FLAG eluate in buffer B (50 mM HEPES, 75 mM NaCl, 10% glycerol, 1 mM TCEP, pH 7.5) with 0.5 or 0.8 mM Ca2+, room temperature, 2 h; anti-FLAG immunoblot
# Settings: both partners purified
binder,measurement,value
B1,binding result,binds
